Results reported in patent US6562591.
Residue numbers refer to the chain shown, from its start.

B1: HA-Tnik(WT), full length human Tnik isoform 1 with N-terminal HA epitope tag (protein)
chain: AYPYDVPDYAMASDSPARSLDEIDLSALRDPAGIFELVELVGNGTYGQVYKGRHVKTGQLAAIKVMDVTGDEEEEIKQEINMLKKYSHHRNIATYYGAFIKKNPPGMDDQLWLVMEFCGAGSVTDLIKNTKGNTLKEEWIAYICREILRGLSHLHQHKVIHRDIKGQNVLLTENAEVKLVDFGVSAQLDRTVGRRNTFIGTPYWMAPEVIACDENPDATYDFKSDLWSLGITAIEMAEGAPPLCDMHPMRALFLIPRNPAPRLKSKKWSKKFQSFIESCLVKNHSQRPATEQLMKHPFIRDQPNERQVRIQLKDHIDRTKKKRGEKDETEYEYSGSEEEEEENDSGEPSSILNLPGESTLRRDFLRLQLANKERSEALRRQQLEQQQRENEEHKRQLLAERQKRIEEQKEQRRRLEEQQRREKELRKQQEREQRRHYEEQMRREEERRRAEHEQEYIRRQLEEEQRQLEILQQQLLHEQALLLEYKRKQLEEQRQAERLQRQLKQERDYLVSLQHQRQEQRPVEKKPLYHYKEGMSPSEKPAWAKEVEERSRLNRQSSPAMPHKVANRISDPNLPPRSESFSISGVQPARTPPMLRPVDPQIPHLVAVKSQGPALTASQSVHEQPTKGLSGFQEALNVTSHRVEMPRQNSDPTSENPPLPTRIEKFDRSSWLRQEEDIPPKVPQRTTSISPALARKNSPGNGSALGPRLGSQPIRASNPDLRRTEPILESPLQRTSSGSSSSSSTPSSQPSSQGGSQPGSQAGSSERTRVRANSKSEGSPVLPHEPAKVKPEESRDITRPSRPASYKKAIDEDLTALAKELRELRIEETNRPMKKVTDYSSSSEESESSEEEEEDGESETHDGTVAVSDIPRLIPTGAPGSNEQYNVGMVGTHGLETSHADSFSGSISREGTLMIRETSGEKKRSGHSDSNGFAGHINLPDLVQQSHSPAGTPTEGLGRVSTHSQEMDSGTEYGMGSSTKASFTPFVDPRVYQTSPTDEDEEDEESSAAALFTSELLRQEQAKLNEARKISVVNVNPTNIRPHSDTPEIRKYKKRFNSEILCAALWGVNLLVGTENGLMLLDRSGQGKVYNLINRRRFQQMDVLEGLNVLVTISGKKNKLRVYYLSWLRNRILHNDPEVEKKQGWITVGDLEGCIHYKVVKYERIKFLVIALKNAVEIYAWAPKPYHKFMAFKSFADLQHKPLLVDLTVEEGQRLKVIFGSHTGFHVIDVDSGNSYDIYIPSHIQGNITPHAIVILPKTDGMEMLVCYEDEGVYVNTYGRITKDVVLQWGEMPTSVAYIHSNQIMGWGEKAIEIRSVETGHLDGVFMHKRAQRLKFLCERNDKVFFASVRSGGSSQVFFMTLNRNSMMNW
B2: HA-Tnik(KM), kinase mutant form of Tnik with N-terminal HA epitope tag (protein)
chain: B1 chain with K64R

Biological target: Gelsolin (Sigma)

Protein	phosphorylation of Gelsolin in an in vitro kinase assay
B1	Wild type Tnik, but not the kinase mutant form of Tnik, phosphorylated Gelsolin in vitro
B2	Wild type Tnik, but not the kinase mutant form of Tnik, phosphorylated Gelsolin in vitro
